The record followed here is PMC5290283.

The target in the assay is C-terminal region of APC (APC-CT), FLAG-tagged. Briefly: AlphaScreen. Particulars: Donor: Gag MA-GST-biotin; acceptor: APC(CT)-FLAG; n=3; parent: est. 2.1; read off a plot. Background: In Alpha technology, singlet oxygen from a donor bead excites a nearby acceptor bead.

For the substance “Fyn(10)WT (wild-type protein of the AlphaScreen with MA HBR mutants) 6A2T: HBR segment […] -> […] (K>A; K>A; R>A; R>A; K>A; K>A; K>T; K>T, in segment order)”, the response is 0.25 10^3 RLU.
As for “Fyn(10)WT (wild-type protein of the AlphaScreen with MA HBR mutants) RKswitch: HBR segment […] -> […] (K>R; K>R; R>K; R>K; K>R; K>R; K>R; K>R, in segment order)”, the response was 2.3 10^3 RLU.
